Square brackets hold non-standard residues; d marks the D form. Ends that are not written are not given here. Hyp = O=C(O)[C@@H]1C[C@@H](O)CN1
Target: T1, HAESA LRR ectodomain (Arabidopsis thaliana, UniProt P47735 15-621)
T1 sequence (looked up): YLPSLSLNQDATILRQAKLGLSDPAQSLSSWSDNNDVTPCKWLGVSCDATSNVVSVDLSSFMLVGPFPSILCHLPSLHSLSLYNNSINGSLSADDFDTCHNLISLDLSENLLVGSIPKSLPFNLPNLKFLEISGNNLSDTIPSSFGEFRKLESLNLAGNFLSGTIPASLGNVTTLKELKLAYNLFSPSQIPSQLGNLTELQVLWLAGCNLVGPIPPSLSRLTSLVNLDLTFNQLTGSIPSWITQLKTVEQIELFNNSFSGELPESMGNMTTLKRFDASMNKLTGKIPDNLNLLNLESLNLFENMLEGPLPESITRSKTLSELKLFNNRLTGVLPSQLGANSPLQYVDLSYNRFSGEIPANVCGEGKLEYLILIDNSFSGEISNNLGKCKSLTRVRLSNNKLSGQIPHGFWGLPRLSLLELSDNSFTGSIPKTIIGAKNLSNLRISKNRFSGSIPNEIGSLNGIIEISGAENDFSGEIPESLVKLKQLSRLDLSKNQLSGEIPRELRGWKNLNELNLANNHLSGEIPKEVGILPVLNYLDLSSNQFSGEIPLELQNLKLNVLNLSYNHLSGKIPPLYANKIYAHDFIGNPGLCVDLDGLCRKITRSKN
Assay: grating-coupled interferometry

YVPIPPSA[Hyp]SKRHN [INFLORESCENCE DEFICIENT IN ABSCISSION (IDA) peptide, Y-IDA]
Kd: ~30 µM
koff: ~2 s⁻¹
kon: ~60000 M⁻¹ s⁻¹

Reference: PMC5879659 (Proceedings of the National Academy of Sciences of the …, 2018)
